Reference: US20220119531A1

Molecular target: human PD-L1 expressed on mammalian cells (human) (UniProt Q9NZQ7)
Assay: FACS on PDL1-Raji cells by the text; sheet title 'Cell-Based Binding Raji-PDL1 cells', y axis labelled IL2 (ng/ml); EC50 table under the plot, unit taken from the axis Concentration (nM)

Sequence of human PD-L1 expressed on mammalian cells (human) (Q9NZQ7 19-290): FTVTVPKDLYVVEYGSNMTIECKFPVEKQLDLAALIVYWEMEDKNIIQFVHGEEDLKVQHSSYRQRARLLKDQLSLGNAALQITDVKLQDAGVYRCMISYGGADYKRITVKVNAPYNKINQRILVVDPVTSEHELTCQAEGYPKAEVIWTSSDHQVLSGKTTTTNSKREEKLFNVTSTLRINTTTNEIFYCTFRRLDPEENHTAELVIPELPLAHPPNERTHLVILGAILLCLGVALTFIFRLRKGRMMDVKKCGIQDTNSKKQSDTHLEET

Tecentriq (atezolizumab) (antibody)
EC50: 0.89 nM
